Data reported in patent US20260055143A1, “HIGH AFFINITY VARIANTS OF SH2 DOMAINS” (Axoiya Inc., priority 2023, published 2026).

target: pTyr-containing peptide (pEZ) derived from Ezrin, PPV{pTyr}EPVS; experiment: fluorescence polarization; the wt is the reference

Row | Substance | Fold Change [fold]
1 | Fes SH2 domain, wild type (Fes^wt) (from UniProt P07332 460-549) | 1

target: Phosphopeptide KQVE{pTyr}LDLDLD; experiment: competitive ELISA, soluble phosphopeptide titrated against the immobilized peptide

Row | Substance | IC50 [nM]
2 | Ptn11_N^αA-2-Arg, Ptn11_N SH2 domain with the αA-2 position mutated to Arg (designed binder) | 14

target: Phosphopeptide PPPT{pTyr}TEVDP; experiment: as above

Row | Substance | IC50 [nM]
3 | Ptn11_C^sFes/αA-2-Arg (designed binder) | 1100

target: pMT peptide EEPQ{pTyr}EEIPIY; experiment: competitive phage ELISA (IC50), soluble pMT peptide against the immobilized peptide

Row | Substance | fold enhancement of affinity over wt [fold]
4 | Src^sFes, Src SH2 domain with the sFes superbinder motif grafted (designed binder) | 125

target: pTyr-containing peptide (pEZ) derived from Ezrin, PPV{pTyr}EPVS; experiment: fluorescence polarization, purified SH2 domain with fluorescein-labelled ezrin phosphopeptide

Row | Substance | IC50 [nM]
5 | Fes SH2 domain, wild type (Fes^wt) (from UniProt P07332 460-549) | 1300

target: pTyr-containing peptide (pEZ) derived from Ezrin, PPV{pTyr}EPVS; experiment: competitive phage ELISA (IC50), soluble Ezrin phosphopeptide against the immobilized peptide

Row | Substance | fold enhancement of affinity over wt [fold]
6 | Fes^sSrc, Fes SH2 domain with the sSrc superbinder motif grafted (designed binder) | 650

target: phosphopeptide; experiment: competition binding

Row | Substance | IC50 [nM]
7 | Abl1 sFes | 120
8 | Abl1 sSrc | 290
9 | Abl1 wt | 1600
10 | Blk sFes | 940
11 | Blk sSrc | 110
12 | Blk wt | > 20000
13 | Btk sFes | 1100
14 | Btk sSrc | 810
15 | Btk wt | > 20000
16 | Crkl sSrc | 27
17 | Crkl wt | 3100
18 | Grb2 sFes | 90
19 | Grb2 sSrc | 11
20 | Grb2 wt | 560
21 | Lck sFes | 70
22 | Lck sSrc | 12
23 | Lck wt | 360
24 | Nck1 sFes | > 20000
25 | Nck1 sSrc | 100

Row | Substance | IC50 [nM]
26 | Nck1 wt | 2000
27 | P55G_N sFes | 1900
28 | P85A_N sFes | 0.9
29 | P85A_N sSrc | 2300
30 | P85A_N wt | 540
31 | P85B_N sFes | 220
32 | P85B_N sSrc | > 20000
33 | P85B_N wt | > 20000
34 | Shc1 sFes | > 20000
35 | Shc1 sSrc | 7200
36 | Shc1 wt | > 20000
37 | Src sSrc | 19
38 | Vav2 sFes | > 20000
39 | Vav2 sSrc | 872
40 | Vav2 wt | > 20000
41 | Vav3 wt | > 20000
42 | Vav sSrc | 950
43 | Vav wt | > 20000
